Data as given in publication PMC5397179 (2017).

B1: Biotinylated full length PcrA (Geobacillus stearothermophilus), wild type [modified: biotin; biotin] [Geobacillus stearothermophilus] / LigA (NAD+-dependent DNA ligase), Bacillus subtilis [B. subtilis 168 (endogenous in the cell extract)] (parent complex)
chain 1: MNFLSEQLLAHLNKEQQEAVRTTEGPLLIMAGAGSGKTRVLTHRIAYLMAEKHVAPWNILAITFTNKAAREMRERVQSLLGGAAEDVWISTFHSMCVRILRRDIDRIGINRNFSILDPTDQLSVMKTILKEKNIDPKKFEPRTILGTISAAKNELLPPEQFAKRASTYYEKVVSDVYQEYQQRLLRNHSLDFDDLIMTTIQLFDRVPDVLHYYQYKFQYIHIDEYQDTNRAQYTLVKKLAERFQNICAVGDADQSIYRWRGADIQNILSFERDYPNAKVILLEQNYRSTKRILQAANEVIEHNVNRKPKRIWTENPEGKPILYYEAMNEADEAQFVAGRIREAVERGERRYRDFAVLYRTNAQSRVMEEMLLKANIPYQIVGGLKFYDRKEIKDILAYLRVIANPDDDLSLLRIINVPKRGIGASTIDKLVRYAADHELSLFEALGELEMIGLGAKAAGALAAFRSQLEQWTQLQEYVSVTELVEEVLDKSGYREMLKAERTIEAQSRLENLDEFLSVTKHFENVSDDKSLIAFLTDLALISDLDELDGTEQAAEGDAVMLMTLHAAKGLEFPVVFLIGMEEGIFPHNRSLEDDDEMEEERRLAYVGITRAEEELVLTSAQMRTLFGNIQMDPPSRFLNEIPAHLLETASRRQAGASRPAVSRPQASGAVGSWKVGDRANHRKWGIGTVVSVRGGGDDQELDIAFPSPIGIKRLLAKFAPIEKV
chain 2: MDKETAKQRAEELRRTINKYSYEYYTLDEPSVPDAEYDRLMQELIAIEEEHPDLRTPDSPTQRVGGAVLEAFQKVTHGTPMLSLGNAFNADDLRDFDRRVRQSVGDDVAYNVELKIDGLAVSLRYEDGYFVRGATRGDGTTGEDITENLKTIRNIPLKMNRELSIEVRGEAYMPKRSFEALNEERIKNEEEPFANPRNAAAGSLRQLDPKIAAKRNLDIFVYSIAELDEMGVETQSQGLDFLDELGFKTNQERKKCGSIEEVITLIDELQAKRADLPYEIDGIVIKVDSLDQQEELGFTAKSPRWAIAYKFPAEEVVTKLLDIELNVGRTGVITPTAILEPVKVAGTTVSRASLHNEDLIKEKDIRILDKVVVKKAGDIIPEVVNVLVDQRTGEEKEFSMPTECPECGSELVRIEGEVALRCINPECPAQIREGLIHFVSRNAMNIDGLGERVITQLFEENLVRNVADLYKLTKERVIQLERMGEKSTENLISSIQKSKENSLERLLFGLGIRFIGSKAAKTLAMHFESLENLKKASKEELLAVDEIGEKMADAVITYFHKEEMLELLNELQELGVNTLYKGPKKVKAEDSDSYFAGKTIVLTGKLEELSRNEAKAQIEALGGKLTGSVSKNTDLVIAGEAAGSKLTKAQELNIEVWNEEQLMGELKK
B2: Biotinylated full length PcrA (Geobacillus stearothermophilus), wild type [modified: biotin; biotin] [Geobacillus stearothermophilus] / UvrB, Bacillus subtilis [B. subtilis 168 (endogenous in the cell extract)] (parent complex)
chain 1: B1 chain 1
chain 2: MKDRFELVSKYQPQGDQPKAIEKLVKGIQEGKKHQTLLGATGTGKTFTVSNLIKEVNKPTLVIAHNKTLAGQLYSEFKEFFPNNAVEYFVSYYDYYQPEAYVPQTDTFIEKDASINDEIDKLRHSATSALFERRDVIIIASVSCIYGLGSPEEYREMVVSLRTEMEIERNELLRKLVDIQYARNDIDFQRGTFRVRGDVVEIFPASRDEHCVRVEFFGDEIERIREVDALTGEILGDRDHVAIFPASHFVTRAEKMEKAIQNIEKELEEQLKVMHENGKLLEAQRLEQRTRYDLEMMREMGFCSGIENYSRHLTLRPPGSTPYTLLDYFPDDFMIVVDESHVTIPQVRGMFNGDQARKQVLVDHGFRLPSALDNRPLRFEEFEKHMHNIVYVSATPGPYEIEHTDEMVEQIIRPTGLLDPLIDVRPIEGQIDDLIGEIQARIERNERVLVTTLTKKMSEDLTDYLKEIGIKVNYLHSEIKTLERIEIIRDLRLGKYDVLVGINLLREGLDIPEVSLVAILDADKEGFLRSERSLIQTIGRAARNAEGRVIMYADKITKSMEIAINETKRRREQQERFNEEHGITPKTINKEIRDVIRATVAAEDKAEYKTKAAPKLSKMTKKERQKVVEQMEHEMKEAAKALDFERAAELRDLLLELKAEG
B3: Biotinylated full length PcrA (Geobacillus stearothermophilus), wild type [modified: biotin; biotin] [Geobacillus stearothermophilus] / DNA pol I, Bacillus subtilis [B. subtilis 168 (endogenous in the cell extract)] (parent complex)
chain 1: B1 chain 1
chain 2: MTERKKLVLVDGNSLAYRAFFALPLLSNDKGVHTNAVYGFAMILMKMLEDEKPTHMLVAFDAGKTTFRHGTFKEYKGGRQKTPPELSEQMPFIRELLDAYQISRYELEQYEADDIIGTLAKSAEKDGFEVKVFSGDKDLTQLATDKTTVAITRKGITDVEFYTPEHVKEKYGLTPEQIIDMKGLMGDSSDNIPGVPGVGEKTAIKLLKQFDSVEKLLESIDEVSGKKLKEKLEEFKDQALMSKELATIMTDAPIEVSVSGLEYQGFNREQVIAIFKDLGFNTLLERLGEDSAEAEQDQSLEDINVKTVTDVTSDILVSPSAFVVEQIGDNYHEEPILGFSIVNETGAYFIPKDIAVESEVFKEWVENDEQKKWVFDSKRAVVALRWQGIELKGAEFDTLLAAYIINPGNSYDDVASVAKDYGLHIVSSDESVYGKGAKRAVPSEDVLSEHLGRKALAIQSLREKLVQELENNDQLELFEELEMPLALILGEMESTGVKVDVDRLKRMGEELGAKLKEYEEKIHEIAGEPFNINSPKQLGVILFEKIGLPVVKKTKTGYSTSADVLEKLADKHDIVDYILQYRQIGKLQSTYIEGLLKVTRPDSHKVHTRFNQALTQTGRLSSTDPNLQNIPIRLEEGRKIRQAFVPSEKDWLIFAADYSQIELRVLAHISKDENLIEAFTNDMDIHTKTAMDVFHVAKDEVTSAMRRQAKAVNFGIVYGISDYGLSQNLGITRKEAGAFIDRYLESFQGVKAYMEDSVQEAKQKGYVTTLMHRRRYIPELTSRNFNIRSFAERTAMNTPIQGSAADIIKKAMIDMAAKLKEKQLKARLLLQVHDELIFEAPKEEIEILEKLVPEVMEHALALDVPLKVDFASGPSWYDAK

Variants of: B1
Test: pulldown quantified by mass spectrometry; parent: 26; read off a plot

Variant | screen value
chain 1 K712A | ~21
chain 1 L714A | ~25

Variants of: B2
Test: pulldown quantified by mass spectrometry; parent: 12; read off a plot

Variant | screen value
chain 1 L714A | ~2.3
chain 1 K712A | ~0

Variants of: B3
Test: pulldown quantified by mass spectrometry; parent: 97; read off a plot

Variant | screen value
chain 1 K712A | ~49
chain 1 L714A | ~70
